Reference: patent US20150233949A1, “DETECTION AND MODULATION OF CYTOCHROME C ACETYLATION” (President and Fellows of Harvard College, priority 2008, published 2015)

Tested on: cytochrome c
Test: Tandem mass spectrometry of cytochrome c acetylation in transfected SH-SY5Y cells
Type: cell-based, mouse
Settings: hSIRT3 cotransfected with cytochrome c in SH-SY5Y cells; FIG. 3
Experimental: SH-SY5Y cells were cultured in Dulbecco's Modified Eagle's Medium (DMEM) supplemented with 10% Fetal Calf Serum (FCS). SH-SY5Y cells were transfected with Lipofectamine 2000 (Invitrogen, Carlsbad, Calif.). Granule neuron cultures were prepared from cerebella of postnatal day 5 mouse pups. Neurons were placed on polyornithine-coated 96-well plates and grown in Basal Medium Eagle (BME) (Sigma, St. Louis, Mo.) supplemented with 10% calf serum (Hyclone Laboratories, Logan, Utah), 25 mM KCl, 2 mM glutamine, penicillin, and streptomycin. One day after cultures were prepared they were treated with 10 μM of the antimitotic agent cytosine-D-arabinofuranoside (Sigma, St. Louis, Mo.) to prevent the proliferation of non-neuronal cells.
A large-scale Flag-immunoprecipitation followed by elution with 3× Flag peptide was performed on cell extracts from 10×15 cm-plates of SH-SY5Y cells transfected with pcDNA-mouse cytochrome c-Flag+/−pcDNA-hSIRT3-HA. Purified proteins were separated by SDS-PAGE, and the band corresponding to cytochrome c was excised and analyzed by MS/MS.

B1: hSIRT3: human SIRT3 deacetylase expressed from transfected pcDNA-hSIRT3-HA vector (protein)
chain: MAFWGWRAAAALRLWGRVVERVEAGGGVGPFQACGCRLVLGGRDDVSAGLRGSHGARGEPLDPARPLQRPPRPEVPRAFRRQPRAAAPSFFFSSIKGGRRSISFSVGASSVVGSGGSSDKGKLSLQDVAELIRARACQRVVVMVGAGISTPSGIPDFRSPGSGLYSNLQQYDLPYPEAIFELPFFFHNPKPFFTLAKELYPGNYKPNVTHYFLRLLHDKGLLLRLYTQNIDGLERVSGIPASKLVEAHGTFASATCTVCQRPFPGEDIRADVMADRVPRCPVCTGVVKPDIVFFGEPLPQRFLLHVVDFPMADLLLILGTSLEVEPFASLTEAVRSSVPRLLINRDLVGPLAWHPRSRDVAQLGDVVHGVESLVELLGWTEEMRDLVQRETGKLDGPDK
modifications: left off: small tags and cut ends
notes: human SIRT3 deacetylase expressed from transfected pcDNA-hSIRT3-HA vector
B1 was tested, and the “acetylation of residues K40 and K74 of cytochrome c” value was “no longer detected”.
